6 molecules from US20080131423A1 (US Dept. of Health and Human Services, published 2008) can be followed below.

One experiment deals with BSA (UniProt P02769 25-607). The experiment is described as follows: phage ELISA, immobilized antigen (data not shown).
In experiment [1] the target is T1, human TREM-like transcript-1 (TLT-1) (human, UniProt Q86YW5 16-311).
T1 construct: whole, on cells; bands of 35 and 25 kDa; also called hTLT-1; TLT-1 on (HEK)293T transfected cells
T1 sequence (looked up): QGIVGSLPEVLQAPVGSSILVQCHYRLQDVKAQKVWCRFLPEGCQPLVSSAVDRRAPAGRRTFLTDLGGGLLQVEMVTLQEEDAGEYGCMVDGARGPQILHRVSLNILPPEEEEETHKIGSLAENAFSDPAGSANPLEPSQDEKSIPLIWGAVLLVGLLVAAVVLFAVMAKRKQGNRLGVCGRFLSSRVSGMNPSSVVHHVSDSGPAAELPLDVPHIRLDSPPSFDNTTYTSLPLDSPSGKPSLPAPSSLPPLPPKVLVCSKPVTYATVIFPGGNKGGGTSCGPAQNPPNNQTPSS
Kind of experiment: flow cytometry, purified scFv on TLT-1 transfected cells. As for the experimental part:
For flow cytometric analysis with TLT-1-transfected cells, phage-containing supernatants were prepared from individual colonies as previously described (14). (HEK)293T-TLT-1 transfected cells (2×10⁵ cells) were washed with PBS/1% BSA and incubated with phages (2×10¹⁰ TU) or purified scFv (1 μg/ml). After 1 hr of incubation at 4° C., cells were washed twice with PBS/1% BSA. Phage binding was detected by incubation with mouse anti-M13 monoclonal antibody (Amersham Bioscience, Piscataway, N.J.), followed by incubation with phycoerithrin (PE)-conjugated anti-mouse antibody (Jackson Immunoresearch, West Grove, Pa.). To analyze scFv binding to human platelets, platelets were incubated with 1 μg of purified scFv for 1 hour at 4° C. and washed three times with PBS containing 0.5% sodium azide and 0.5% BSA. ScFv binding was detected using a FITC-conjugated anti-c-myc antibody (Sigma, St Louis, Mo.). TLT-1 expression was detected with a commercial anti-human TLT-1 pAb (R&D Systems, MN) as previously described (10).
(A flow cytometer gives signals particle by particle.)

BSA, sequence (P02769 25-607 limits assumed): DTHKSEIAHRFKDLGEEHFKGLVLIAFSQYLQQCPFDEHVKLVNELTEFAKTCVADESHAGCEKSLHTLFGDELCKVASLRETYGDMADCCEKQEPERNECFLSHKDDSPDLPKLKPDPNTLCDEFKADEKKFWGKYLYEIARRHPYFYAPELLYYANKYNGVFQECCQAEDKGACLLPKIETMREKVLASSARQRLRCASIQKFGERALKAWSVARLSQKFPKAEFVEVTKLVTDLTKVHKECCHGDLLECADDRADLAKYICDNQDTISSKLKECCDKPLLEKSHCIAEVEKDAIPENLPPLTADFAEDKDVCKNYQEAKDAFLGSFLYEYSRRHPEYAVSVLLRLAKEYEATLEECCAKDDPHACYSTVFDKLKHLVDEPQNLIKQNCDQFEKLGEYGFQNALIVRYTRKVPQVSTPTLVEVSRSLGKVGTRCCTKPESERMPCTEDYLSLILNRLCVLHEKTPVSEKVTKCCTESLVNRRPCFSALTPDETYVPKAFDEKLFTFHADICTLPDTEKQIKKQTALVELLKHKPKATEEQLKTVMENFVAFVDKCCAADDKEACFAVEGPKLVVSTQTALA

B1: scFv C10 (scFv)
scFv: MAEVQLLESGGGLVQPGGSLRLSCAASGFTFSSYAMSWVRQAPGKGLEWVSGISSTGGATTYADSVKGRFTISRDNSKNTLYLQMNSLRAEDTAVYYCAKSTYDFDYWGQGTLVTVSSGGGGSGGGGSGGGGSTDIQMTQSPSSLSASVGDRVTITCRASQSISSYLNWYQQKPGKAPKLLIYGASTLQSGVPSRFSGSGSGTDFTLTISSLQPEDFATYYCQQNADAPTTFGQGTKVEIKRAAAHHHHHHGAAEQKLISEEDLNGAA
notes: Human scFv from the Tomlinson I phage library; Soluble form made in E. coli HB2151 and purified on Protein L (28 kDa); also called clone C10
As for B1, in the experiment with BSA, the binding result was “no binding”.

B2: scFv B8 (scFv)
scFv: MAEVQLLESGGGLVQPGGSLRLSCAASGFTFSSYAMSWVRQAPGKGLEWVSNITASGYATAYADSVKGRFTISRDNSKNTLYLQMNSLRAEDTAVYYCAKTTATFDYWGQGTLVTVSSGGGGSGGGGSGGGGSTDIQMTQSPSSLSASVGDRVTITCRASQSISSYLNWYQQKPGKAPKLLIYDASNLQSGVPSRFSGSGSGTDFTLTISSLQPEDFATYYCQQDTASPSTFGQGTKVEIKRAAAHHHHHHGAAEQKLISEEDLNGAA
notes: Human scFv from the Tomlinson I phage library; Soluble form purified on Protein L; also called GenBank DQ375452
Take B2: the binding result with BSA is on record as “no binding”.

B3: scFv A7 (scFv)
scFv: MAEVQLLESGGGLVQPGGSLRLSCAASGFTFSSYAMSWVRQAPGKGLEWVSAIGSYGSATAYADSVKGRFTISRDNSKNTLYLQMNSLRAEDTAVYYCAKNGYDFDYWGQGTLVTVSSGGGGSGGGGSGGGGSTDIQMTQSPSSLSASVGDRVTITCRASQSISSYLNWYQQKPGKAPKLLIYNASGLQSGVPSRFSGSGSGTDFTLTISSLQPEDFATYYCQQSAANPSTFGQGTKVEIKRAAAHHHHHHGAAEQKLISEEDLNGAA
notes: Human scFv from the Tomlinson I phage library; Soluble form purified on Protein L; also called GenBank DQ375450
With B3, the binding result with BSA is recorded as “no binding”; in experiment [1] it was “binds”.

B4: scFv A1 (scFv)
scFv: MAEVQLLESGGGLVQPGGSLRLSCAASGFTFSSYAMSWVRQAPGKGLEWVSGIGTTGYATAYADSVKGRFTISRDNSKNTLYLQMNSLRAEDTAVYYCAKGNSGFDYWGQGTLVTVSSGGGGSGGGGSGGGGSTDIQMTQSPSSLSASVGDRVTITCRASQSISSYLNWYQQKPGKAPKLLIYTASTLQSGVPSRFSGSGSGTDFTLTISSLQPEDFATYYCQQSSTDPGTFGQGTKVEIKRAAAHHHHHHGAAEQKLISEEDLNGAA
notes: Human scFv from the Tomlinson I phage library; Soluble form purified on Protein L; also called GenBank DQ375449
B4: the binding result is listed as “no binding” with BSA and “binds” in experiment [1].

B5: scFv D1 (scFv)
scFv: MAEVQLLESGGGLVQPGGSLRLSCAASGFTFSSYAMSWVRQAPGKGLEWVSAIGTTGYATAYADSVKGRFTISRDNSKNTLYLQMNSLRAEDTAVYYCAKANSYFDYWGQGTLVTVSSGGGGSGGGGSGGGGSTDIQMTQSPSSLSASVGDRVTITCRASQSISSYLNWYQQKPGKAPKLLIYSASTLQSGVPSRFSGSGSGTDFTLTISSLQPEDFATYYCQQDSTSPDTFGQGTKVEIKRAAAHHHHHHGAAEQKLISEEDLNGAA
notes: Human scFv from the Tomlinson I phage library; Soluble form purified on Protein L; also called GenBank DQ375454
B5: the values for the binding result (with BSA; in experiment [1]) were “no binding” and “binds”, respectively.

B6: scFv A8 (scFv)
scFv: MAEVQLLESGGGLVQPGGSLRLSCAASGFTFSSYAMSWVRQAPGKGLEWVSGIGTTGYSTAYADSVKGRFTISRDNSKNTLYLQMNSLRAEDTAVYYCAKTAYTFDYWGQGTLVTVSSGGGGSGGGGSGGGGSTDIQMTQSPSSLSASVGDRVTITCRASQSISSYLNWYQQKPGKAPKLLIYSASTLQSGVPSRFSGSGSGTDFTLTISSLQPEDFATYYCQQNSTYPATFGQGTKVEIKRAAAHHHHHHGAAEQKLISEEDLNGAA
notes: Human scFv from the Tomlinson I phage library; Soluble form purified on Protein L; also called GenBank DQ375451
As to B6, the binding result with BSA was “no binding”; in experiment [1], “binds”.
